Experimental data taken from patent US7557181B2, “Pan-HER antagonists and methods of use” (Molecular Logix, Inc., priority 2005, dated 2009).
Numbering of substitutions follows the chain as printed.

B1: heregulin (protein)
chain: SHLVKCAEKEKTFCVNGGECFMVKDLSNPSRYLCKCPNEFTGDRCQNYVMASFYKHLGIEFMEAEELY
B2: BiRegulin: chimeric EGF homolog, amino terminal residues (NSDSE) of EGF replaced with corresponding residues of HRGβ1 (SHLVK) (protein)
chain: HHHHHHIEGRSHLVKCPLSHDGYCLHDGVCMYIEALDKYACNCVVGYIGERCQYRDLKWWELR
B3: BiRV35EG39L: BiRegulin with glycine 39 replaced by leucine and valine 35 replaced with glutamate (protein)
chain: B2 chain with V45E, G49L

Experiments:
Assay type in all cases: cell-based
[1] = tested on: MCF-7 cells (human breast cancer cell line that express HER2 and HER3); assay: MCF-7 cell proliferation stimulation assay (WST-1); details: serum-free, 72 hours, FIG. 4
Method: MCF-7 cells were obtained from the American Type Culture Collection (ATCC). Stock cultures of MCF-7 were maintained in Eagle's MEM supplemented with 1% ITS-X (Invitrogen) and 10% fetal bovine serum. For proliferation assays, MCF-7 cells were transferred to serum-free medium (SFM) for 24 hours and then trypsinized and suspended at 1E5 cells/mL in SFM. Fifty microliters of cell suspension (5000 cells) were plated per well in 96 well microtiter plates. Serial dilutions of HER ligands or mutant proteins were prepared at twice the final concentration in SFM and 50 ul was added to wells, bringing the final volume to 100 ul at the desired final concentration. Plates were incubated for 72 hours at 37 C in a humidified 5% CO2 atmosphere. Cell proliferation was determined by addition of 10 ul/well of WST-1 Cell Proliferation Reagent (Roche Applied Sciences, Indianapolis, Ind.) for the last three hours of the proliferation period.

EGFR = molecular target: T1, EGFR (Homo sapiens, UniProt P00533); assay: Autophosphorylation of EGFR in A431 cells; details: epithelial cancer cell line, FIG. 2
T1 construct: Autophosphorylation of EGFR in A431 cells, an epithelial cancer cell line; endogenous in cells; host or cells: A431 cells

[2] = tested on: HER5 cells (mouse fibroblast cells that overexpress human EGFR); assay: HER5 cell proliferation stimulation assay (WST-1); details: serum-free, 48 hour proliferation period, FIG. 3
Method: Hung (MD Anderson Cancer Center). Stock cultures of HER5 were propagated in D-MEM/F12 medium containing 10% fetal bovine serum, 100 units/ml of penicillin and 100 ug/ml of streptomycin in a water-jacketed incubator at 37° C. in a humidified 5% CO2 atmosphere. For HER5 proliferation assays, the cells were changed into DMEM/F12 without serum for 24 hours. Cells were then trypsinized and suspended at 1E5 cells/ml. […] Fifty microliters of cell suspension (5000 cells) were added to appropriate wells bringing the total volume to 100 ul at the desired concentrations. Plates were incubated for a 48 hour proliferation period. Cell proliferation was determined by addition of 10 ul/well of WST-1 Cell Proliferation Reagent (Roche Applied Sciences, Indianapolis, Ind.) for the last three hours of the proliferation period. WST-1 is a tetrazolium salt that is cleaved to formazan dye by mitochondrial dehydrogenases in viable cells. The amount of formazan was measured at 450 nm using a microplate reader (Dynex Technologies) with MRX Revelation software.

Row | Molecule | stimulation of MCF-7 cells (proliferation) [1] | stimulation of autophosphorylation of EGFR (EGFR) | stimulation of HER5 cells (proliferation) [2]
1 | B1 | can be stimulated |  | 
2 | B2 | can be stimulated | stimulated | can be stimulated
3 | B3 | Neither cell line is stimulated | does not stimulate autophosphorylation | Neither cell line is stimulated
